# Data published in PMC12350162 (Nature, 2025).
# B1: heterodisulfide reductase HdrABC (complex)
# chain 1: MAEEKKETMEEPKIGVYVCHCGVNIGGVVDVEAVRDYAAKLPNVVIAKDYKYYCSDPGQLEIQKDIKELGINRVVVAACSPRLHEPTFRRCVEEAGLNQFLFEFANIREHDSWVHMDNPEGATEKAKDLVRMAVAKARLLEPLEASKVSVDDKALVIGGGVAGIQAALDLADMGFKTYMVEKRPSISGRMGQLDKTFPTLDCSMCILAPKMVDVGKHDNIELITYAEVKEVDGYIGNFKVKIEKKPRYIDEELCTGCGSCVEVCPIEMPNYFDEGIGMTKAVYIPFPQAVPLCATIDKDYCIECMLCDEVCERGAVKHDQEPEEIEIEVGTIIVATGYDAYDPTEKLEYGYGRHTNVITGLELERMINASGPTDGKVLKPSDGEKPKRVAFIHCVGSRDEQIGKPYCSRVCCMYIMKNAQLIKDKMPDTEVTLYYMDIRAFGKGFEEFYKRSQEKYGIKFIRGRPAEVIENPDLTLTVRSEDTLLGKVTEYDYDMVVLGVGLVPPEGAETLRQTIGLSKSADGFLMEAHPKLRPVDTLTDGVYLAGVAQGPKDIPDAVAQASGAAARAAIPMVKGEVEIEPIIAVTDSDVCGGCEVCIELCPFGAISIEEGHANVNVALCKGCGTCVAACPSGAMDQQHFKTEQIMAQIEAALNEPASK
# chain 2: not shown
# chain 3: MTLLQREENIIRKGNIDKEFSEKIKAAGGDSLEYCFQCGTCTGSCPSGRRTPYRVRQIIRKANVGLKDEIISDPTLWMCTTCYSCQERCPRKVKIVDVVKLARNEAAKAGFMAPAHKAVGSFVIKTGHGVPINDATMELRKAVGLGELPPTTHQFPEALEEVQKIIKATGFDQLIGYNWETGELE
# notes: also called Hdr(ABC)2; (HdrABC)2
# Biological target: the molecule itself
# Experiment: cryo-EM structure; 1-MDa fraction of the Superose 6 Increase step, 1 mg/ml, frozen anaerobically at once after purification; Titan Krios G3i, K3; focused maps of Hdr(ABC)2 and of the Elp arm in two conformational states
protein,measurement,value
B1,stoichiometry N,2
